# Experiment: yeast display, Sf9 membrane polyspecificity reagent, FACS + sequencing; frameworks hold sequencing errors
# Outline: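 Sorting gates, low and high (top ~1%), were placed on anti-HA fluorescence to track expression and on streptavidin fluorescence to track reagent binding. A clone's polyreactivity label is taken from the gate it came out of. The reagent was 10% biotinylated, detergent-solubilized Sf9 membrane, applied for 1 hour at 4 °C to galactose-induced yeast display cells.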
row,Sequence,polyreactivity (PSR sort gate)
1,QVQLVESGGGLVQAGGSLRLSCAASGFTFTWYAMGWYRQAPGKERELVAAISSGGGRTYYADSVKGRFTISRDNAKNTVYLQMNSLKPEDTAVYYCNAVAGGVYVDNGYDYWGQGTQVTVSS,high polyreactivity
2,QVQLVESGGGLVQAGGSLRLSCAASGFTFTWYAMGWYRQAPGKERELVAAISSGGGRTYYADSVKGRFTISRDNAKNTVYLQMNSLKPEDTAVYYCNKVSSFGYYYWGQGTQVTVSS,high polyreactivity
3,QVQLVESGGGLVQAGGSLRLSCAASGFTFTYYAMGWYRQAPGKERELVAAISWRGTSTFYADSVKGRFTISRDNAKNTVYLQMNSLKPEDTAVYYCATEKWVGYKYWSSRKYDYWGQGTQVTVSS,high polyreactivity
4,QVQLVESGGGLVQAGGSLRLSCAASGFTFTYYAMGWYRQAPGKERELVATISSGGSTYYADSVKGRFTISRDNAKNTVYLQMNSLKPEDTAVYYCAAERGAITPLVYPPEFDYWGHGTQVTVSS,low polyreactivity
5,QVQLVESGGGLVQAGGSLRLSCAASGFTFVAYAMGWYRQAPGKERELVAAIRRTDTSTYYADSVKGRFTISRDNAKNTVYLQINSLKPEDTAVYYCAADYWRRTYLGFDYWGQGTQVTVSS,low polyreactivity
6,QVQLVESGGGLVQAGGSLRLSCAASGFTFVEYAMGWYRQATGKERELVAAITSGGSTYYADSVKGRFTISRDNAKNTVYLQMNSLKPADTAVYYCNAEGVVVAISHFSVQDGYWGQGTQVTVSS,low polyreactivity
7,QVQLVESGGGLVQAGGSLRLSCAASGFTFVGNAMGSYRQAPGKERELVAAITWSGGRTYYADSVKGRFTISRDNAKNTVYLQMNSLKPEDTAVYYCNKLVERWYGYWGQGTQVTVSS,high polyreactivity
8,QVQLVESGGGLVQAGGSLRLSCAASGFTFVGNAMGWSRQAPGKERELVATITSGGNTKYADSVKGRFTISRDNAKNTVYLQMHSLKPEDTAVYYCAAAKYNYRRFNYWGQGTQVTVSS,low polyreactivity
9,QVQLVESGGGLVQAGGSLRLSCAASGFTFVGNAMGWYRQAAGKEWELVADITGSDGSTYYADSVKGRFTISRDNAKNTVYLQINSLKPEDTAVYYCAASPPYKLVWWRRMDYWGQGTQVTVSS,low polyreactivity
10,QVQLVESGGGLVQAGGSLRLSCAASGFTFVGNTMGWYRQAPGKERELVAAIRGRDGRTYYADSVKGRFTISRDNAKNTVYLQMNSLKPEDTAVFYCNAVGFVWYFDVYSYFTEIKYDYWGQGTQVTVSS,low polyreactivity
11,QVQLVESGGGLVQAGGSLRLSCAASGFTFVGYAMGWYRQAPGKERELVAAITGRGGTTYYADSVKGRFTISRDNAKNTVYLQMNSLKPEDTAVYYSNADSYITYVQYLYARSWMDYWGQGTQVTVSS,low polyreactivity
12,QVQLVESGGGLVQAGGSLRLSCAASGFTFVINDMGLYRQAPGKERELVADITSGGDTYYADSVKGRFTISRDNAKNTVYLQMNSLKPEDTAVYYCAADIYPDWIYLLYGYWGQGTQVTVSS,low polyreactivity
13,QVQLVESGGGLVQAGGSLRLSCAASGFTFVKNAMGWYRQAPGKERELVAAITGSAGRTYYADSVKGRFTISRDNAKNTVYLQMNSLKPEDTAVYYCAAPRFAAPRRIGYDWGQGTQVTVSS,high polyreactivity
14,QVQLVESGGGLVQAGGSLRLSCAASGFTFVKYAMGWYRQAPGKERELVAAISRSGGRTYYADSVKGRFTISLDNAKNTVYLQMNSLKPEDTAVYYCAADVATTHELDYWGQGTQVTVSS,high polyreactivity
15,QVQLVESGGGLVQAGGSLRLSCAASGFTFVLYAMGWYRQAPGKERELVATITSSGRTNYADSVKGRFTISRDNAKNTVYLQMNSLKPEDTAVYYCAARGGRRYDYWGQGTQVTVSS,high polyreactivity
16,QVQLVESGGGLVQAGGSLRLSCAASGFTFVRNVMGWYRQAPGKERELVAAINTGGTTDYADSVKGRFTISRDNAKNTVYLQMNSLKPEDTAVYNCNADYDSQYHYLLRYDYWGQGSQVTVSS,low polyreactivity

row,Sequence,polyreactivity (PSR sort gate)
1,QVQLVESGGGLVQAGGSLRLSCAASGFTFVRYAMGWYRQAPGKEREFVASISARGGNTFYADSVKGRFTISRDNAKNTVYLQMNSLKPEDTAVYYCNALTYFKRSEYYWGQGTQVTVSS,high polyreactivity
2,QVQLVESGGGLVQAGGSLRLSCAASGFTFVRYVMGWYRQAPGKERELVAAISRSGGSTHYADSVKGRFTISRDNAKNTVYLQMNSLKPEDTAVYYCNAYGYRHRGNGYWGQGTQVTVSS,high polyreactivity
3,QVQLVESGGGLVQAGGSLRLSCAASGFTFVSYAMGWSRQAPGKERELVATITSDGSTNYADSVKGRFTISRDNAKNTVYLQMNSLKPEDTAVYYCAADIHYYPGYLAYDYWGQGTQVTVSS,low polyreactivity
4,QVQLVESGGGLVQAGGSLRLSCAASGFTFVSYAMGWYRQEPGKEREFVASISARGGNTFYADSVKGRFTISRDNAKNTVYLQMNSLKPEDTAVYYCAKRGPYGTGYGYWGQGTQLTVSS,high polyreactivity
5,QVQLVESGGGLVQAGGSLRLSCAASGFTFVVNAMGWYRQAPGKERELVATIRSNGGSTYYADSVKGRFTISRDNAKNTVYLQMNSLKPEDTAVYYCAATATDTKYGYWGQGTQVTVSS,low polyreactivity
6,QVQLVESGGGLVQAGGSLRLSCAASGFTFVYNAMGWYRQAPGKERELVAAISSRGGSTFYADSVKGRFTISRDNAKNTVYLQMNSLKPEDTAVYYCNAVPGWTYDYWGQGTQVTVSS,high polyreactivity
7,QVQLVESGGGLVQAGGSLRLSCAASGFTFVYYTMGWYRQAPGKERELVAAITSRGGNTYYADSVKGRFTISRDNAKNTVYLQMNSLKPEDTAVYYCAARRITTYYYWGQGTQVTVSS,high polyreactivity
8,QVQLVESGGGLVQAGGSLRLSCAASGFTFVYYVMGWYRPAPGKERELVAAISWSGGRTYYADSVKGRFTISRDNAKNTVYLQMNSLKPDDTAVYYCAAVRPYYYPLPTVPNLPYDYWGQGTQVTVSS,high polyreactivity
9,QVQLVESGGGLVQAGGSLRLSCAASGFTFVYYVMGWYRQAPGKERELVAAITYSGGSTYYADSVKGRFTISRDNAKNTVYLHMNSLKPEDTAVYYCAKEVQTYWYHYYYWGQGTQVTVSS,high polyreactivity
10,QVQLVESGGGLVQAGGSLRLSCAASGFTFWAYAMGWYRPAPGKERELVARISGSGGRTYYADSVKGRFTISRDNAKNTVYLQMNSLKPEDTAVYYCAARRYYYPVGYDYWGEGTQVTVSS,high polyreactivity
11,QVQLVESGGGLVQAGGSLRLSCAASGFTFWDNAMGWYRQAPGKERELVAAISRRGGTTYYADSVKGRFTISRDNAKNTVYLQMNRLKPEATAVYYCNARRRSVPYRYDFWGQGTQVTVSS,high polyreactivity
12,QVQLVESGGGLVQAGGSLRLSCAASGFTFWDYAMGWYRQAPGKERELVAAISSRGTRTYYADSVKGRFTISRDNAKNTVYFQMNSLKPEDTAVYYCATAIPDPDYIHNYWGQGTQVTVSS,high polyreactivity
13,QVQLVESGGGLVQAGGSLRLSCAASGFTFWDYAMGWYRQAPGKERELVAAISSRGTRTYYADSVKGRFTISRDNAKNTVYLQMNSLKPEDTAVYYCATAIPDPDYIHNYWGQGTQVTVSS,high polyreactivity
14,QVQLVESGGGLVQAGGSLRLSCAASGFTFWDYAMGWYRQAPGKERELVATISVGGGSTYYADSVKGRFTISRDNSKNSVYLQMNSLKPEDTAVYYCAADRSYYLAGYDYWGQGTQVPVSS,low polyreactivity
15,QVQLVESGGGLVQAGGSLRLSCAASGFTFWDYTMGWYRQAPGKERELVAAISSSGGGTYYADSVKGRFTISRDNAKNTVYLQMNSLKPVDTAVYYCAASVWYYPMDYWGQGTQVTVSS,low polyreactivity
16,QVQLVESGGGLVQAGGSLRLSCAASGFTFWEYAMGWYRQAPGKERELVAAIRDRGVNTYYADSVKGRFTISRDNAKNTVYLQMNSLKPVDTAVYYCAKSTRRGGVALGEYDYWGQGSQVTVSS,low polyreactivity

# Reference: the nanobody polyreactivity screen of Harvey et al. (2022)
